Data taken from paper doi:10.1101/2024.10.28.620575.
Where “and” joins values, the source holds several entries; their conditions need not be identical. Identical values can stand only once.

Key:
[1] = target: DM2h^Bla-1-Myc (Arabidopsis thaliana); experiment: native gel or EMSA
[2] = target: ΔTPDM3^Col-0 DQ-RR (D332R Q345R double mutant, recombinant) (Arabidopsis thaliana); experiment: SEC
[3] = target: ΔTPDM3^Hh-0 (recombinant, 52-515) (Arabidopsis thaliana); experiment: cryo-EM structure
[4] = target: ΔTPDM3^Col-0 DQN-AAA (D332A Q345A N349A triple mutant, recombinant) (Arabidopsis thaliana); experiment: SEC
[5] = target: ΔTPDM3^Col-0 Q345R (recombinant) (Arabidopsis thaliana); experiment: SEC
[6] = target: ΔTPDM3^Col-0 D332R (recombinant) (Arabidopsis thaliana); experiment: SEC
[7] = target: ΔTPDM3^Col-0 (recombinant, 52-515) (Arabidopsis thaliana); experiment: cryo-EM structure
[8] = target: ΔTPDM3^Col-0 S214A (recombinant) (Arabidopsis thaliana); experiment: SEC
[9] = target: ΔTPDM3^Hh-0 S214A (recombinant) (Arabidopsis thaliana); experiment: SEC

## DM2h^Bla-1-Myc (receptor)
[1]
  stoichiometry N: 2 and 4

## ΔTPDM3^Col-0 DQ-RR (D332R Q345R double mutant, recombinant) (enzyme)
[2]
  stoichiometry N: 6

## ΔTPDM3^Hh-0 (recombinant, 52-515) (enzyme)
[3]
  stoichiometry N: 6

## ΔTPDM3^Col-0 DQN-AAA (D332A Q345A N349A triple mutant, recombinant) (enzyme)
[4]
  stoichiometry N: 6

## ΔTPDM3^Col-0 Q345R (recombinant) (enzyme)
[5]
  stoichiometry N: 6

## ΔTPDM3^Col-0 D332R (recombinant) (enzyme)
[6]
  stoichiometry N: 6

## ΔTPDM3^Col-0 (recombinant, 52-515) (enzyme)
[7]
  stoichiometry N: 6

## ΔTPDM3^Col-0 S214A (recombinant) (enzyme)
[8]
  stoichiometry N: 6

## ΔTPDM3^Hh-0 S214A (recombinant) (enzyme)
[9]
  stoichiometry N: 6
